US6248715A, “Method of treating a urokinase-type plasminogen activator-mediated disorder” (Chiron Corporation, priority 1995, dated 2001)
Where no end group is shown, it is not given here. Fuc = fucose (fucosylation)

How the values were obtained:
[1] = molecular target: uPAR (Homo sapiens, UniProt Q03405); details: cited from earlier work
[2] = molecular target: Baculovirus-derived recombinant human urokinase receptor, truncated soluble molecule, biotinylated (human) (UniProt Q03405); test: phage panning on biotinylated soluble uPAR on streptavidin plates; eluted cfu as a percentage of input; control phage
[3] = test system: SaOS-2 osteosarcoma cell line; details: cited from earlier work
[4] = molecular target: Baculovirus-derived recombinant human urokinase receptor, truncated soluble molecule, biotinylated (human) (UniProt Q03405); test: phage panning on biotinylated soluble uPAR on streptavidin plates; eluted cfu as a percentage of input
[5] = molecular target: Baculovirus-derived recombinant human urokinase receptor, truncated soluble molecule, biotinylated (human) (UniProt Q03405); test: phage panning on biotinylated soluble uPAR on streptavidin plates; eluted cfu as a percentage of input; control phagemid
[6] = molecular target: Baculovirus-derived recombinant human urokinase receptor, truncated soluble molecule, biotinylated (human, UniProt Q03405, biotinylated with NHS-biotin); test: radio-receptor competition assay: 125I-ATF tracer on biotinylated soluble uPAR immobilised on streptavidin plates
Procedure: Baculovirus-derived recombinant human urokinase receptor was expressed as a truncated, soluble molecule as described previously for mouse L-cells (Masucci et al., *J Biol Chem* (1991) 266:8655). The purified receptor was biotinylated with NHS-biotin, and immobilized at 1 μg/mL in PBS/0.1% BSA on streptavidin coated 96-well plates. Human uPA ATF (residues 1–135, obtained from M. Shuman, University of California, San Francisco) was iodinated using the Iodogen method (Pierce), and used as tracer. The ^125I-ATF was incubated at 100–500 pM with increasing amounts of huPA_1-48 in triplicate (100 pM-1 μM) for 2 hours at room temperature in 0.1% BSA/PBS in a total volume of 200 μL. The plates were then washed 3 times with PBS/BSA, and the remaining bound radioactivity determined.

Sequence of uPAR (Q03405 23-335): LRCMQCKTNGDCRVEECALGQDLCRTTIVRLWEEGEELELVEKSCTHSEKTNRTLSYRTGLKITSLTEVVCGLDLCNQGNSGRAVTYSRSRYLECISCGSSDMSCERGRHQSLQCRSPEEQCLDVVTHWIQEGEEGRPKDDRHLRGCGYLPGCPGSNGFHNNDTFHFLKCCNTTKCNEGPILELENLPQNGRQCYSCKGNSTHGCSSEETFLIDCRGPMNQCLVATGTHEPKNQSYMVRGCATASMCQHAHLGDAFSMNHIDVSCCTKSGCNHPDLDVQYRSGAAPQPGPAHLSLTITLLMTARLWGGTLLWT

In the case of “uPA12-32: the critical domain alone, residues 12-32 of uPA (Appella et al.) (DCLNGGTCVSNKYFSNIHWCN; UniProt P00749 32-52, looked up, fragment)”, the “affinity relative to intact ATF (fold less)” value ([1]; compared with intact ATF) is listed as “about 100 fold” and the Kd ([1]; critical domain alone, read-out: affinity for uPAR) is listed as 40 nM.

Molecule “LP67 control phage (ampicillin-resistant M13)” has a % Yield (+uPAR) [2] of 0.0099%.

For “fucosylated EGF-like domain: fucosylated EGF-like domain (uPA4-43, produced by cleavage from pro-uPA) (LHQVPSNCDCLNGGT(Fuc)CVSNKYFSNIHWCNCPKKFGGQHCE; cysteine pairing not given here; UniProt P00749 24-63, looked up, fragment)”, the mitogenic activity [3] is given as “mitogenic”.

Work on “Phagemid pHM3a displaying Glu-tag-UPAELD-short pIII (Glutag-uPA1-48) (from UniProt P00749)” yielded a % Yield (+uPAR) [4] of 0.08%.

With “Phagemid pGMEGF displaying M1-FLAG-EGF-medium long pIII (from UniProt P01133)” the % Yield (+uPAR) [5] was 0.0012%.

For “Phagemid pHM1a displaying M1-FLAG-UPAELD-short pIII (M1Flag-uPA1-48) (from UniProt P00749)”, the % Yield (+uPAR) [4] was 0.094%.

SNELHQVPSNCDCLNGGTCVSNKYFSNIHWCNCPKKFGGQHCEIDKSK (ligand, ends and bridges not checked; cysteine pairing not given here) showed a Kd [6] of 0.3 nM.
